# Measurements published in patent publication US20240352434, “COMPOSITIONS COMPRISING A VARIANT CAS12I3 POLYPEPTIDE AND USES THEREOF” (Arbor Biotechnologies, Inc., published 2024).
# Where a chain is given by its changes, count along the chain named.
# T1: Cas12i3 K583R N711R C724R (Unidentified, K583R,N711R,C724R)
# T1 chain: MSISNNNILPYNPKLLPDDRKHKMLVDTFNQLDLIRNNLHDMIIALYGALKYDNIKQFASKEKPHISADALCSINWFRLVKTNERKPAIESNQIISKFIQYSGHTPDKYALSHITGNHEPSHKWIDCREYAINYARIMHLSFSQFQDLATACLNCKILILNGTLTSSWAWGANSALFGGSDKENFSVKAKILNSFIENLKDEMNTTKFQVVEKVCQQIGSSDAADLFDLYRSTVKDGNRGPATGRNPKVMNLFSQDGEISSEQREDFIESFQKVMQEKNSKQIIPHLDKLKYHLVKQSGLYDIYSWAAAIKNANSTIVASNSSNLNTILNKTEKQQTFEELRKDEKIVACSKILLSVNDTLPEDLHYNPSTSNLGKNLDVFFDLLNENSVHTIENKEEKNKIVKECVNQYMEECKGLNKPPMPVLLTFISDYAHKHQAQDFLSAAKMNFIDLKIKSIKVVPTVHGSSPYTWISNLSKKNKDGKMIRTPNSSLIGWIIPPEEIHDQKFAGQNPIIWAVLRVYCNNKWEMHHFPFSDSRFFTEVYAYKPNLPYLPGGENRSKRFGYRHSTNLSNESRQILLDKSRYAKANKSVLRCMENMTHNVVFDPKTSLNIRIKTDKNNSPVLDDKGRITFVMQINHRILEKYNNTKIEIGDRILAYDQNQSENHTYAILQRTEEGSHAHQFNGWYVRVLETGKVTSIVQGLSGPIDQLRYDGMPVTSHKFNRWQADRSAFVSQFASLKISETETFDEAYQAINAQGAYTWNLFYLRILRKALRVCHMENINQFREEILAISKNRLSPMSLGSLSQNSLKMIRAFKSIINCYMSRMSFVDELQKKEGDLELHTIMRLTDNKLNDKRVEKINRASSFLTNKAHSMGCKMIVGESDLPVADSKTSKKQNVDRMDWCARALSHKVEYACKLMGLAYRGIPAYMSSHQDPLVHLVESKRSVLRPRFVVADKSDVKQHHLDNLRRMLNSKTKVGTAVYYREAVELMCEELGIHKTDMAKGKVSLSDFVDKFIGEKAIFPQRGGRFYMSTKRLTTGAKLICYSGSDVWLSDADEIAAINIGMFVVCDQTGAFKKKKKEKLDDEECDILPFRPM
# T2: Cas12i3 S801R (Unidentified, S801R)
# T2 chain: T1 chain with R583K, R711N, R724C, S801R
# B1: VEGFA_T2 crRNA ; VEGFA_T2 target (ssRNA ; dsDNA)
# RNA: AUAGUGUGUCCUUAGUUGACAUAAUCCUCCACCAGUCAUGGU
# DNA 1: AATCCTCCACCAGTCATGGT
# DNA 2: ACCATGACTGGTGGAGGATT
# B2: EMX1_T5 crRNA ; EMX1_T5 target (ssRNA ; dsDNA)
# RNA: AUAGUGUGUCCUUAGUUGACAUUAUUAUUCCCAUAGGGAAGG
# DNA 1: TATTATTCCCATAGGGAAGG
# DNA 2: CCTTCCCTATGGGAATAATA
# B3: AAVS1_T3 crRNA ; AAVS1_T3 target (ssRNA ; dsDNA)
# RNA: AUAGUGUGUCCUUAGUUGACAUGUGAGAAUGGUGCGUCCUAG
# DNA 1: GTGAGAATGGTGCGTCCTAG
# DNA 2: CTAGGACGCACCATTCTCAC
# Target: T1, Cas12i3 K583R N711R C724R
# Test: cell_activity; fold change in % indels, HEK293T; PAM not stated in example
# Outline: (§1)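 HEK293T cells lipofected with Lipofectamine 2000 (crRNA omitted in negative controls). Harvested 72 h post-transfection and lysed in QuickExtract. Target loci amplified by two-round PCR and sequenced on NextSeq (150 cycles) to quantify % indels.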
row,Binder,binding signal
1,B1,2.57 fold of wild-type
2,B2,1.99 fold of wild-type
3,B3,2.96 fold of wild-type

# Target: T2, Cas12i3 S801R
# Test: as above
# Outline: as §1
row,Binder,binding signal
1,B1,1.74 fold of wild-type
2,B2,1.44 fold of wild-type
3,B3,2.2 fold of wild-type
